B1: Hairpin Ribozyme (parent)
chain: GUCCUCUUUCACGUGCGCGUGAAAGAGAGAAGUGAACCAGAGAAACACACGUUGUGGUAUAUUACCUGGUA

The series covers variants of B1. The experiment in a line: self-cleavage, relative activity (ratio to wild type); higher = more cleavage; co-transcriptional.
With C18G A36G, the self-cleavage turned out to be 0.68.

Take C18U A47C: the self-cleavage was 0.474.

As for U8C A71G, the self-cleavage stood at 0.974. For the variant C12U G15C, the self-cleavage stood at 0.897.

A28U U33A: the self-cleavage is 0.152.

With A39G U60C, the self-cleavage was 0.424. As for C6U C66G, the self-cleavage turned out to be 0.194.

Turning to A11C A59C, the self-cleavage came to 0.0956. A23G G54C: the self-cleavage was 0.363. Turning to G25U A45U, the self-cleavage was found to be 0.162. The same measure for C6G A44G: 0.134. In the case of U5G G29U, the self-cleavage turned out to be 0.168. In the case of U8G G21A, the self-cleavage was 0.693. For G57U U63G the value was 0.291; for A44C U62G, 0.304; for A45C A47C, 0.198.

Consider G32U U52C, for which the self-cleavage was 0.144. With C16A G40A, the self-cleavage was found to be 0.28. For the variant A35G G40U, the self-cleavage was found to be 0.161. For C6U A31C the value was 0.0728; for A39U A49U, 0.0838; for U14C G69C, 0.3. With G1C A64G, the self-cleavage is 0.143. On to U20G C46U, for which the self-cleavage is 0.0821. Take U8G G51A: the self-cleavage was 0.739. As to U2C G69U, the self-cleavage was determined as 0.114. For the variant G32A C37U, the self-cleavage came to 0.129. With G17C A49U, the self-cleavage came out at 0.263. The same measure for U2G G32A: 0.0684; for U7A C48G: 0.0789. Consider U2A A64G, for which the self-cleavage was found to be 0.0976. With C6U C38A, the self-cleavage turned out to be 0.0889. For the variant C4A A26U, the self-cleavage is 0.228. Turning to G13U U62C, the self-cleavage is 0.291. With A30G A36C, the self-cleavage worked out at 0. The same measure for U33C A64U: 0.154; for C4U C66U: 0.234; for C48G G57A: 0.151. Consider G57C C66U, for which the self-cleavage came to 0.101. For U20G G56C the value was 0.312. Consider G1A A26G, for which the self-cleavage stood at 0.149. For the variant C10A A44U, the self-cleavage is 0.139. On to C3A C10G, for which the self-cleavage worked out at 0.631. For U14A A64G the value was 0.589; for A22G A44U, 0.123. The same measure for C50U A71G: 0.457; for U5A A28U: 0.126. Take U20C A24G: the self-cleavage was found to be 0.758.

As to G40C G56A, the self-cleavage is 0.107. The same measure for G42A U55A: 0.104; for G42C G54A: 0.159. For G32U C38U, the self-cleavage came to 0.0994. Consider A47C U70A, for which the self-cleavage was 0.264. On to C3U U63A, for which the self-cleavage was found to be 0.189.

Take A26G U55A: the self-cleavage was found to be 0.283. Consider A28G C37U, for which the self-cleavage was 0.644.

As for G21C A71C, the self-cleavage amounted to 1.12. Regarding U60G U67A, the self-cleavage was determined as 0.144. Consider U14G G15A, for which the self-cleavage is 0.932. In the case of G34C U67A, the self-cleavage is 0.451.

Consider U53G U62C, for which the self-cleavage turned out to be 0.281. As for G32C A41U, the self-cleavage worked out at 0.101.

Regarding C16G A41C, the self-cleavage was 1.12. With G1U A36U, the self-cleavage was 0.224. On to U14G G40A, for which the self-cleavage turned out to be 0.289. For U2G G15U the value was 0.395; for G51A A71U, 0.718; for C10G U53G, 0.632. For G25U A71U the value was 0.575. Consider U7G A24C, for which the self-cleavage came to 0.677.

A43U U53G: the self-cleavage is 0.046. For C3A A36U, the self-cleavage was found to be 0.319.

With C18A G32C, the self-cleavage came out at 0.0795. The same measure for A47C A61G: 0.17. On to U67G G69A, for which the self-cleavage amounted to 0.134. For C16G C46A the value was 0.224; for G13C A43C, 0.0516; for U7C G34A, 1.17. The same measure for G15A G32C: 0.174.

As for C12A G56C, the self-cleavage amounted to 0.0797. As to U2C U5A, the self-cleavage came to 0.118. For G54C G68A, the self-cleavage is 0.187.

C4G C66G: the self-cleavage is 0.209. Turning to C12U U53A, the self-cleavage was 0.974. As to U70A, the self-cleavage turned out to be 0.926. Consider G57U G68U, for which the self-cleavage came out at 0.196. In the case of A24G A43G, the self-cleavage came out at 0.132.

Turning to A23U A61G, the self-cleavage worked out at 0.125.

For U53A G57A, the self-cleavage worked out at 0.14. Take U9A A31U: the self-cleavage came out at 0.0478. In the case of U9G G13A, the self-cleavage was determined as 0.536. U14G A23C: the self-cleavage was determined as 0.754. G54U U62C: the self-cleavage was determined as 0.172.

Consider G29U U63C, for which the self-cleavage was 0.084. For A39C G51C the value was 0.324; for G25C U53G, 0.39.

Take U5A U52C: the self-cleavage came to 0.274. As to A36C G57C, the self-cleavage was 0.17. G1U G68U: the self-cleavage came out at 0.051.

For the variant U8G G34C, the self-cleavage was found to be 1.19. For the variant U14C A28G, the self-cleavage was 0.65. On to G13A A36U, for which the self-cleavage was found to be 0.491.

On to C10A U52A, for which the self-cleavage was found to be 0.783. For C16A G54U, the self-cleavage is 0.595. With G13C G51C, the self-cleavage amounted to 0.681.

Take A22U A61G: the self-cleavage worked out at 0.155.

Take A22U A26G: the self-cleavage came out at 0.743.

With A43U A47U, the self-cleavage was 0.145. Consider A31C C37A, for which the self-cleavage is 0.0507. The same measure for C12A A64G: 0.411. The same measure for A36G A49C: 0.0302; for A11C G34C: 1.07. As for A11C G34A, the self-cleavage came out at 1.01. For A26G A59C, the self-cleavage amounted to 0.162. Take A49U U53C: the self-cleavage came out at 0.124.

As to G68C A71G, the self-cleavage is 0.233. The same measure for A43G A64G: 0.132. As to G1C C48A, the self-cleavage amounted to 0.129.

For A35U A47U, the self-cleavage came to 0.185. Take A24G A36C: the self-cleavage turned out to be 0.466. For U9C G42U the value was 0.34.

As for C38G U58C, the self-cleavage worked out at 0.185.

As for G25C A28G, the self-cleavage came to 0.883. In the case of C16A G17A, the self-cleavage was 1.02.

Turning to G29A A61U, the self-cleavage turned out to be 0.096. As to U8C C10G, the self-cleavage is 0.114. On to U5C U9C, for which the self-cleavage was 0.457. On to C48A U55C, for which the self-cleavage came to 0.144.

Regarding G29A U53G, the self-cleavage stood at 0.0705. For the variant G25A C38U, the self-cleavage was 0.283. Take C12A G42A: the self-cleavage is 0.168.

Consider U5G U14C, for which the self-cleavage is 0.383. The same measure for G15U G57C: 0.128; for A39C G69C: 0.188. U5G U55A: the self-cleavage amounted to 0.139. Turning to A24C A64C, the self-cleavage stood at 0.192. For A23G A24G the value was 0.715; for U8G C38A, 0.165; for A23C A36C, 0.286.

Take U52C U53C: the self-cleavage was 1.07. Regarding G13C G69C, the self-cleavage was determined as 0.199. Regarding U55C A61C, the self-cleavage was 0.0408.

Turning to G1A A47G, the self-cleavage was 0.123. Take U7C U20A: the self-cleavage was 0.82. Consider G32A A71C, for which the self-cleavage came out at 0.15.

Turning to C4A U55C, the self-cleavage was found to be 0.0693. As to U2A C65A, the self-cleavage was found to be 0.222.

Consider A41U G51C, for which the self-cleavage was determined as 1.27. For G17A C46G the value was 0.211.

Turning to G21U A35U, the self-cleavage worked out at 0.626. The same measure for G19C U60C: 0.984; for A45U G51A: 0.075.

Take G25U G34U: the self-cleavage worked out at 1.28.

Turning to U8G A24G, the self-cleavage is 0.632. For A11U U20C, the self-cleavage is 1.11. As for A22U U60C, the self-cleavage amounted to 0.719. Turning to U5C A11U, the self-cleavage is 0.55. Regarding U52C U55C, the self-cleavage came out at 0.536. Take G25C A71G: the self-cleavage came out at 0.687. Consider C3G G69C, for which the self-cleavage is 0.177. In the case of G57C C65A, the self-cleavage was 0.0756. Consider A44G U52G, for which the self-cleavage was 0.231. C38G U55G: the self-cleavage is 0.193.

With C38G U55A, the self-cleavage worked out at 0.288. Consider U8C A49U, for which the self-cleavage was found to be 0.244.

As to G32C G57C, the self-cleavage is 0.113.

Take A30G U62A: the self-cleavage amounted to 0.0629.
